Measured values taken from publication PMC9234707.
Blank lines part the entries; values can stand above or below the substance they belong to.

Tests used:
[1] = molecular target: BMP10 (human (by the printed accession)) (UniProt O95393)
[2] = molecular target: BMP10 (human (by the printed accession)) (UniProt O95393); remark: listed apart in the source
[3] = molecular target: activin B (human (by the printed accession)) (UniProt P09529)
[4] = molecular target: BMPR2 GBD-Fc (WT) (human) (UniProt Q13873); test: SPR; BIAcore 3000; receptor-Fc (about 500 RU BMPR2-Fc WT or variants, 150 RU ACVR2A-Fc) captured on immobilised anti-human IgG (Fc), CM5 chip; single injections of 80 nM GF, single curve fits, averages of two independent injections; 25 °C; HBS/EPS (0.01 M Hepes, 0.5 M NaCl, 3 mM EDTA, 0.005% Tween 20, pH 7.4) with 0.1% bovine serum albumin; 50 μl/min; 1:1 binding model, KD = kd/ka
Sequence of BMPR2 GBD-Fc (WT) (human) (Q13873 whole entry): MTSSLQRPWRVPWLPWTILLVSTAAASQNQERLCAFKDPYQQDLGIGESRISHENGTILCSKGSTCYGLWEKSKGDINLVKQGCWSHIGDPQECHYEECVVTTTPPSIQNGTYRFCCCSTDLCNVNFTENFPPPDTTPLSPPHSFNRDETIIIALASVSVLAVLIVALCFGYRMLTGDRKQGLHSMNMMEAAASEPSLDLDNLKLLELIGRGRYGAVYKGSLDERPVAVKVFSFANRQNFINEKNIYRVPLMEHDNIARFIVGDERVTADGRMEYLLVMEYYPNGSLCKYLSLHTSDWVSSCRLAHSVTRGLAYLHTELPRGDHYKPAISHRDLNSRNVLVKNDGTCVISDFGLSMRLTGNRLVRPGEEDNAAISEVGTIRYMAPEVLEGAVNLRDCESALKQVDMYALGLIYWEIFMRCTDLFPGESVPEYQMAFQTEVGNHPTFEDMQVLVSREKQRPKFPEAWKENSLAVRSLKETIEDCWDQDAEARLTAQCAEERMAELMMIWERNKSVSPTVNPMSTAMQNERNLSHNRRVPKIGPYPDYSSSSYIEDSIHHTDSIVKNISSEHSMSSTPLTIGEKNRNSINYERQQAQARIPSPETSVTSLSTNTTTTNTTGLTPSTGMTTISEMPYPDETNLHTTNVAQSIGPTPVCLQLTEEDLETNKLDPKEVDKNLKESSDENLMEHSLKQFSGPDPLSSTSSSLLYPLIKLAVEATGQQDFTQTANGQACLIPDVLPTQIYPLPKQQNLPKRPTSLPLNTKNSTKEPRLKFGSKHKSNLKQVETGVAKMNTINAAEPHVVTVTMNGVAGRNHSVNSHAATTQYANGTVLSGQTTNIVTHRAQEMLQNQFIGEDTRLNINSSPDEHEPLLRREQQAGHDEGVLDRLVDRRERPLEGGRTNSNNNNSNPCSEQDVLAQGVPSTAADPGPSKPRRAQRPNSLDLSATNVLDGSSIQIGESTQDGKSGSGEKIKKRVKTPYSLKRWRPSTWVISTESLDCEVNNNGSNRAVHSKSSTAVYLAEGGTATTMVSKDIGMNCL

[5] = molecular target: ACVR2A GBD-Fc (human) (UniProt P27037); test: SPR; BIAcore 3000; receptor-Fc captured on immobilised anti-human IgG (Fc), CM5 chip; titration, global fit of 2.5, 5.0, 10.0, 20.0 and 40.0 nM GF injections; 25 °C; HBS/EPS (0.01 M Hepes, 0.5 M NaCl, 3 mM EDTA, 0.005% Tween 20, pH 7.4) with 0.1% bovine serum albumin; 50 μl/min; 1:1 binding model, KD = kd/ka
Sequence of ACVR2A GBD-Fc (human) (P27037 whole entry): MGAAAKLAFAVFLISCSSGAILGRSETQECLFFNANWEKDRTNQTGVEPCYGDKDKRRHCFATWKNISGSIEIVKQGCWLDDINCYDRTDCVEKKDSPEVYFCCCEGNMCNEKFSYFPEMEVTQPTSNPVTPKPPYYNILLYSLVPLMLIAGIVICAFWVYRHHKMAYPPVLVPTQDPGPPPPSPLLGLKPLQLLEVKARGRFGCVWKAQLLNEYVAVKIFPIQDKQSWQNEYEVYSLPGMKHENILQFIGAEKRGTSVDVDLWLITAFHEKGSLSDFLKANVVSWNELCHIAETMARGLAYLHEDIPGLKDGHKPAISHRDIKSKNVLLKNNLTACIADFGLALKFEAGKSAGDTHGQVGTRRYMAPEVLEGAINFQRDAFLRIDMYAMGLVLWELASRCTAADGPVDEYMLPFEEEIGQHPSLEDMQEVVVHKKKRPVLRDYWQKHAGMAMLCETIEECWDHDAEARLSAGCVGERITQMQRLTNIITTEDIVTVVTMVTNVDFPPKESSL

[6] = molecular target: ACVR2A GBD-Fc (human) (UniProt P27037); test: SPR; BIAcore 3000; receptor-Fc (about 500 RU BMPR2-Fc WT or variants, 150 RU ACVR2A-Fc) captured on immobilised anti-human IgG (Fc), CM5 chip; single injections of 80 nM GF, single curve fits, averages of two independent injections; 25 °C; HBS/EPS (0.01 M Hepes, 0.5 M NaCl, 3 mM EDTA, 0.005% Tween 20, pH 7.4) with 0.1% bovine serum albumin; 50 μl/min; 1:1 binding model, KD = kd/ka

Sequence of BMP7 (P18075 293-431): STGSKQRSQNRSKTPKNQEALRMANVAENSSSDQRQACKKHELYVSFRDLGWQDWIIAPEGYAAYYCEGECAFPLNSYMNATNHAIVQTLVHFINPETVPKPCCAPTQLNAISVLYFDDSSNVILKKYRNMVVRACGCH
Sequence of BMP10 (human (by the printed accession)) (O95393 317-424): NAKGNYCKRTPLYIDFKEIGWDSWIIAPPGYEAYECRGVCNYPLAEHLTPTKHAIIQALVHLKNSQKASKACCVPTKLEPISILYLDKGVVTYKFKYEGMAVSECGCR
Sequence of activin B (human (by the printed accession)) (P09529 293-407): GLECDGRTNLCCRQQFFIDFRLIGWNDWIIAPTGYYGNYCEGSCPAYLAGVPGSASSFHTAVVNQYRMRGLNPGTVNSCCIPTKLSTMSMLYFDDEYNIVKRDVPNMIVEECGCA

Substance: BMPR2-Fc variant G47D (from UniProt Q13873 27-138) (Fc fusion)
IC50 of inhibition of signalling by 5 nM BMP10 in stably transfected HEK293 reporter cells [1]: 10 nM

Substance: BMPR2-Fc variant S107P (from UniProt Q13873 27-138) (Fc fusion)
IC50 of inhibition of signalling by 5 nM BMP10 in stably transfected HEK293 reporter cells [1]: 7 nM

Substance: BMPR2-Fc variant Q42R (from UniProt Q13873 27-138) (Fc fusion)
IC50 of inhibition of signalling by 5 nM BMP10 in stably transfected HEK293 reporter cells [1]: 54 nM

Substance: ACVR2A GBD-Fc (from UniProt P27037 20-120) (Fc fusion)
IC50 of inhibition of signalling by 5 nM BMP10 in stably transfected HEK293 BRE (SMAD1/5/8) luciferase reporter cells, 0-400 nM receptor-Fc [2]: 187 nM | IC50 of inhibition of signalling by 5 nM activin B in stably transfected HEK293 SBE (SMAD2/3) luciferase reporter cells, 0-400 nM receptor-Fc [3]: 14 nM

Substance: activin A (from UniProt P08476 311-426) (ligand)
Kd [5]: 0.018 nM | koff [5]: 1.2e-05 s⁻¹ | kon [5]: 600000 M⁻¹ s⁻¹ | Kd [6]: 0.09 nM | koff [6]: 0.00019 s⁻¹ | kon [6]: 2.1e+06 M⁻¹ s⁻¹ | Kd [4]: 9.6 nM | koff [4]: 0.0036 s⁻¹ | kon [4]: 370000 M⁻¹ s⁻¹

Now from value to substance:

IC50 of inhibition of signalling by 5 nM BMP10 in stably transfected HEK293 reporter cells [1]: 10 nM
Substance: BMPR2-Fc variant Q92H (from UniProt Q13873 27-138) (Fc fusion)

Kd [4]: 13 nM | koff [4]: 0.0071 s⁻¹ | kon [4]: 520000 M⁻¹ s⁻¹
Substance: BMP7 (from UniProt P18075 293-431) (ligand)

IC50 of inhibition of signalling by 5 nM BMP10 in stably transfected HEK293 BRE (SMAD1/5/8) luciferase reporter cells, 0-400 nM receptor-Fc [2]: 35 nM
Substance: BMPR2 GBD-Fc (WT) (from UniProt Q13873 27-138) (Fc fusion)
